Results on 83 variants are retold here after the RNAGym collection of RNA variant scans (doi:10.1101/gr.219683.116).

B1: mRNA-splicing (parent)
chain: AGUUGCUGCUGGGAGCUCCAGCACAGUGAAAUGGACAGAAGGGCAGAGCAA

In this data set the parent is B1. The experiment in a line: exon inclusion enrichment index; higher = more inclusion; WT1 exon 5 minigene, HEK293.
As to G5C C6A U7C G8A U10A A23U C24U, the “exon inclusion enrichment index” value came to 0.00309.

Consider G5C C6U G8C C9U U10C C44U A45U, for which the “exon inclusion enrichment index” value was determined as 1.28.

In the case of G5A C6G U7G C9A G21A, the “exon inclusion enrichment index” value is 0.00299.

Consider G5C C6U U7G G8A C9U U10C, for which the “exon inclusion enrichment index” value turned out to be 1.49.

As to G5C C6G U7C U10C A23C C24U, the “exon inclusion enrichment index” value came out at 2.07.

With G5A U7C G8A U10C G12A G13C, the “exon inclusion enrichment index” value was found to be 0.711.

On to G5A C6U U7A G8U C9A G38U A39G, for which the “exon inclusion enrichment index” value amounted to 0.03.

Take G5A C6U U7A G8U C9A G38U A39U: the “exon inclusion enrichment index” value was 0.00248.

For A20U G21A, the “exon inclusion enrichment index” value is 1.45.

For the variant C6A U7C C9A U10C G21U, the “exon inclusion enrichment index” value worked out at 3.09.

As to G5A U7C G8A U10C A23U C24U, the “exon inclusion enrichment index” value worked out at 0.272.

G5U G8U C9U U27C G28A: the “exon inclusion enrichment index” value worked out at 0.135.

For the variant C6U U7G C9A U10C, the “exon inclusion enrichment index” value was 1.45.

On to C6A U7A C9A U10A A23G C24A, for which the “exon inclusion enrichment index” value came to 1.85.

For the variant G5C U7C G8A U10C, the “exon inclusion enrichment index” value worked out at 0.327.

Regarding G5A C6U U7A G8U C9A G28U A29C, the “exon inclusion enrichment index” value worked out at 0.0467.

Turning to C6A U7A C9A U10A A23U C24U, the “exon inclusion enrichment index” value was found to be 0.0381.

Turning to G5C C6U G8C C9A U10A, the “exon inclusion enrichment index” value was found to be 1.21.

For the variant C6A U7A C9A U10A G38U, the “exon inclusion enrichment index” value came to 0.223.

As for A20U, the “exon inclusion enrichment index” value was determined as 2.62.

Take G5C C6U G8C C9U U10C A31G U32C: the “exon inclusion enrichment index” value was determined as 3.89.

As to C6A U7C C9A U10C C16U, the “exon inclusion enrichment index” value was found to be 3.55.

On to G5C C6U G8C C9U U10C G28C A29U, for which the “exon inclusion enrichment index” value came out at 1.13.

Consider G5C C6G U7C U10C A35U C36G, for which the “exon inclusion enrichment index” value was determined as 0.445.

In the case of G5A C6G U7G C9A A31C, the “exon inclusion enrichment index” value was found to be 0.00349.

In the case of G34C A35G, the “exon inclusion enrichment index” value amounted to 0.0695.

In the case of C6A U7C C9A U10C A30G A31G, the “exon inclusion enrichment index” value is 1.7.

On to G5U G8U C9U G13C A14C, for which the “exon inclusion enrichment index” value was 0.063.

Regarding G5A C6G U7G C9A C22A A23G, the “exon inclusion enrichment index” value worked out at 0.000928.

Consider G5A U7C G8A C9U U10A, for which the “exon inclusion enrichment index” value was 0.0302.

With G5A U7C G8A C9U U10C, the “exon inclusion enrichment index” value is 2.24.

As for C6A U7A C9A U10A U17G C18G, the “exon inclusion enrichment index” value turned out to be 0.391.

On to C6A U7A G8U C9A U10A, for which the “exon inclusion enrichment index” value turned out to be 0.117.

As for G5C C6G U7C G8C C9A U10C, the “exon inclusion enrichment index” value was found to be 3.14.

On to G5A C6G U7G C9A A20C G21A, for which the “exon inclusion enrichment index” value amounted to 0.00106.

Take U4G G5A C6G U7C U10C: the “exon inclusion enrichment index” value was 2.22.

For the variant C6A U7A C9A U10A C18G C19G, the “exon inclusion enrichment index” value was found to be 0.718.

Consider G5A U7C G8A U10C G11U G12U, for which the “exon inclusion enrichment index” value is 0.337.

Take G5A U7C G8A U10C A30G A31U: the “exon inclusion enrichment index” value is 0.691.

With C6A U7C C9A U10C G43A C44G, the “exon inclusion enrichment index” value was 5.09.

For G5A C6G U7G C9A A20G G21C, the “exon inclusion enrichment index” value turned out to be 0.00328.

With C6A U7C C9A U10C C19U A20C, the “exon inclusion enrichment index” value is 3.08.

Take C6A U7C C9A U10C C19U A20G: the “exon inclusion enrichment index” value is 1.79.

G5C C6G U7C U10C G21C: the “exon inclusion enrichment index” value came to 3.41.

With G5C C6G U7C U10C G21A C22A, the “exon inclusion enrichment index” value is 1.7.

As to G5C C6G U7C U10C C19U A20C, the “exon inclusion enrichment index” value was 3.09.

As for C6A U7A C9A U10A A37U G38A, the “exon inclusion enrichment index” value was 0.258.

On to G5U G8U C9U A47G G48A, for which the “exon inclusion enrichment index” value is 0.0435.

G11C G12U: the “exon inclusion enrichment index” value is 0.467.

For G2U U3A C6A U7A C9A U10A, the “exon inclusion enrichment index” value was 1.45.

Consider C6A U7A C9A U10A G15C, for which the “exon inclusion enrichment index” value worked out at 1.25.

On to G5C C6G U7C U10C A45U, for which the “exon inclusion enrichment index” value turned out to be 4.56.

With G5A C6U U7A G8U C9A G26A, the “exon inclusion enrichment index” value was determined as 0.141.

For the variant G5C C6G U7C U10C G38U A39C, the “exon inclusion enrichment index” value is 3.03.

Take G33U G34U: the “exon inclusion enrichment index” value was 0.0123.

Consider U3A U4G G5C C6U G8C C9U U10C, for which the “exon inclusion enrichment index” value amounted to 0.155.

Consider G5U G8U C9U C16A U17C, for which the “exon inclusion enrichment index” value was 0.0818.

For G5C C6G U7C U10C A45C G46U, the “exon inclusion enrichment index” value stood at 1.87.

Consider G5A U7C G8A U10C G11C, for which the “exon inclusion enrichment index” value was determined as 1.96.

Take G5C C6G U7C U10C G12A G13A: the “exon inclusion enrichment index” value was found to be 1.51.

As for C6A U7A C9A U10A G48U, the “exon inclusion enrichment index” value turned out to be 1.17.

As to G5C C6A U7C G8A U10A G38C A39C, the “exon inclusion enrichment index” value stood at 0.136.

As for G5A C6U U7A G8U C9A C18G C19G, the “exon inclusion enrichment index” value was 0.0648.

Take G5U G8U C9U U10G: the “exon inclusion enrichment index” value amounted to 0.095.

Take G5C C6G U7C U10C C16G U17A: the “exon inclusion enrichment index” value was 4.71.

On to G5C C6G U7C U10C A14G G15U, for which the “exon inclusion enrichment index” value turned out to be 1.21.

As to G5A C6U U7A G8U C9A A23C C24G, the “exon inclusion enrichment index” value came to 0.241.

As for G5A U7C G8A U10C G41A G42C, the “exon inclusion enrichment index” value came to 2.53.

Turning to G5A C6U U7A G8U C9A G12C, the “exon inclusion enrichment index” value was found to be 0.0374.

C6A U7C C9A U10C A14U G15U: the “exon inclusion enrichment index” value is 2.08.

For G5U G8U C9U G46U, the “exon inclusion enrichment index” value was 0.0708.

Regarding G5A C6G U7G C9A U32C, the “exon inclusion enrichment index” value came out at 0.00508.

Turning to C6A U7A C9A U10A A31G U32A, the “exon inclusion enrichment index” value worked out at 2.95.

Consider G5C C6G U7C U10C A40U G41A, for which the “exon inclusion enrichment index” value is 0.26.

Take G5A C6G U7G C9A G15A C16U: the “exon inclusion enrichment index” value was 0.000755.

On to G5C C6A U7C G8A U10A C24G, for which the “exon inclusion enrichment index” value came out at 0.119.

In the case of G5U G8U C9U A29G, the “exon inclusion enrichment index” value came to 0.246.

Turning to G5A U7C G8A U10C C22U A23U, the “exon inclusion enrichment index” value stood at 1.53.

Take G5A U7C G8A U10C A31C U32A: the “exon inclusion enrichment index” value stood at 1.81.

In the case of C6A U7A C9A U10A U17A C18A, the “exon inclusion enrichment index” value came out at 0.427.

Regarding A30U A31C, the “exon inclusion enrichment index” value is 0.202.

G5U G8U C9U G34C A35C: the “exon inclusion enrichment index” value came to 0.0104.

In the case of C6A U7C C9A U10C A45U, the “exon inclusion enrichment index” value came to 3.86.
